This is an account of results in US20140178364A1.

This assay concerns the target interleukin 3 receptor α (IL-3Rα) chain (human) (UniProt P26951). Nature of the assay: cell-based or functional assay.
UniProt P26951, sequence (P26951 20-378): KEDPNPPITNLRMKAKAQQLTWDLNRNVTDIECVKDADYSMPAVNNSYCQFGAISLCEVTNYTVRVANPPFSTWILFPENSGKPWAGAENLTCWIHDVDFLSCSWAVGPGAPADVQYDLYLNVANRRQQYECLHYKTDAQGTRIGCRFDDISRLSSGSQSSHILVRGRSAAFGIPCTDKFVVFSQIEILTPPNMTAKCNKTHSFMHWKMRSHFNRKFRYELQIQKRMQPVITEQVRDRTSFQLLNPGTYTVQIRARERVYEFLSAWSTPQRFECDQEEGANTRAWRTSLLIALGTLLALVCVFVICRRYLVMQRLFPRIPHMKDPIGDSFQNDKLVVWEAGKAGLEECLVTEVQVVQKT

In turn, “chimeric version of 7G3 with a human IgG1 constant domain (ch7G3) (antibody)” registered a pDCs (% of total cells remaining in culture), 4 h, 10 µg/ml antibody on human PBMC (% of total cells) of 0.1; a pDCs (% of total cells remaining in culture), 24 h, 10 µg/ml antibody on human PBMC (% of total cells) of 0.02; a pDCs (% of total cells remaining in culture), 48 h, 10 µg/ml antibody on human PBMC (% of total cells) of 0.005.
